The nature of this data set: protease stability score; higher = more stable; yeast display proteolysis, trypsin and chymotrypsin.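 Further: relative to predicted unfolded state with 0 unfolded-like and 1 meaning tenfold more protease.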
Turning to “SEDEEESEKFLRRLLQAYRTGDEDKLNELIDPNARMDVNGVDNHGWEEISRLLKELRVKHLILHDQKNYDGRAEMDTIVDGRFNGRDDRRKSIIIVIKIDGRWIIESLSIG”, the protease stability score stood at 1.1.

In turn, “SEDEEESRHAYQKLVRDLETGDEKKTEDNVDPNVRLEQGDKTLHGRERFVHWYSRLGAKHFHIHSFEAQGDKIHIDGTINVNGVTHRVEYISLKVNGRWLMHQVIIR” had a protease stability score of 0.662.

In turn, “SEDEEETRESLELLMRSLKTGDEHQIRRMFDPDALTVIDGREFHGRERATHAMREWKREIRIKEIRIRDWKTQGEKVHLDIEVVTEVNGVEDRREVKLLLIKVNGRWFIHSIHIH” yielded a protease stability score of 1.43.

The sequence “SEDEEEVKHMVDEWWKQVLTGDEESLMRLIDPHAKLDFENVTYHGRDELSRYLTKLLREIRFRDIKIHDVRVYDGKVDLHTHMNIIVDGRTHILDTRMIIVKINGRWYIHQVRIK” had a protease stability score of 2.42.

Take “SEDEEEVRKFLKRLLRATETGNEQVLKELFDPNVRIVIGDKHLIGWDFMHTILRRVDVWVVRHIEIKRIDFQGDKLDIDGHVHYEEQIDGQRVSHKRDVKLIMLKVNGVWMFEYIIIH”: the protease stability score was found to be 2.45.

Take “SEDEEEWHEATHLLVESLKTGDWKDLSRLADPNAKLHVGEKTVIGRELVSKHLKNRMTELGINHIHIEDRESQGDKIFIISHIHVNGREMKSIFIILKIDGRWILHSMEIREH”: the protease stability score is 0.327.

Sequence “SEDEEFAEKYLKEWVERVRTGDEDHLWKLLDPDPRIRIDGKEIIGREIAVKHMSEIRPTSIRLTSFHSQGDKINVDGETDGEFNGVRQRQRVIYIILKVDGRWLLHSVEFK” gave a protease stability score of 1.05.

As for “SEDEEFAKHASEIMSRILETGNEEETNRMMDPNVRLDWNGQDHVGREDVLRFRKLIIEILGIERIKVELHDVKTVNGRVHTDIIVNINGQEYRLRVFMTKVNGRWHVKFMEFE”, the protease stability score came to 1.7.

As to “SEDEEFAKRFFEILVHYHKTGDWEKRMKMADPNTRSDINGVHFHGREDIYRFEDELWREMGIDHVEFHVRDSDIQGDKLHLHTQVIIHVGNKHIELDERMILLKFNGQWVLESLEVK”, the protease stability score came out at 1.32.

Regarding “SEDEEFARTAVELVSEAWETGDENLEEHLLDPNVKIDIGDKELHGMESSIKYWREIRIHLLHVEIHSVEFFDGRVILDTRFKFDGDFDGKRIERSSTMIWIAHKVDGRWRVHHMENR”, the protease stability score is 1.25.

Sequence “SEDEEFFKKALDLVFEYNRTGDERSMNELADPHVKVDINGVTLHGWEEFSRHLRELRLKTFKLDDLDSQGDKIITKGVFHHHINGRTIDLDVIIFTRKINGRWVLEKVEFK” registered a protease stability score of 1.35.

Turning to “SEDEEFLEWTMRLYTKAHATGDEETLTDLMDPNTRLDINGVIWIGREFVRKHHEDLGAKHSRMDLRIRDRDSINGRLIVHTRFRLKIHIGDKDISIEHHTTLYMIKIDGRWHIREIEIR”, the protease stability score was determined as 1.09.

Sequence “SEDEEFMRHKSELYLEMLKTGDEEELERLFDPNVRLHIGDKNQHGREQFSHFFSKLHKELGVDHLSFEHIHLEVVNGRLIIIMRVHLHVGDKVHDREISIDASKVDGQWLVQSVHIHVR” gave a protease stability score of 0.121.

“SEDEEFSKEATETILRVIHTGDWDMIKDLADPNARIHVGNYNSWGREEVMRVIRELFEVLGIKHLIFTHVEIDVIDGVVHSIIHGYEEVGDKTIETHIDIVSKKIDGRWRLQRIEIHHR” showed a protease stability score of 1.29.

“SEDEEHAEFFNRLLAESLMTGDWRTIANLLDPHVRVRVGDKQHHGREQVIHLLTKLLEDWGLERVHIHLRELRVINGRIHTRNELHVGDKTVDVKVHTRKIDGRWVIEEIEFR” gave a protease stability score of 1.16.

As for “SEDEEHAELALRLWEIVEKTGDETEARKMFDPHTRIIIDGRDLIGWSFIRHLMRRFDHVDIDHKREKRREFQGEKVRMDIEVDMEFVVGEKIYRIDFRVNIVLLKVNGKWRIHSLEIK”, the protease stability score was found to be 2.47.

“SEDEEHAERMLRILIELLLTGNESDFLRYADPNVRTIVGDKTFHGRDEFRTAWEWFLREIRLRHIELKHVEIQGNKVRVHGIWNIEINGRHIRLHVLIEIVVVDGVLRETRFEIR” registered a protease stability score of 1.47.

The sequence “SEDEEHAREFIKILFELLLTGDFKARLERLDPHTRLDVDGKDVHGMENINDLWLRIVEKYKNIQIHFHIHDVSIIGDKIHLHVHVEINVNGVNLRHEELTIVQKFNGKWIIKERHYI” came in with a protease stability score of 1.38.

In turn, “SEDEEHARKLVEELLHIMITGDFHRIRELADPHARIVVGDKVFHGREMMFRFSRELRVHDHRLRHEEYINGVVHIEGHVDGEINGRRHRTEVRIHIVVIDGRVKTMEIRWD” had a protease stability score of 1.35.

The sequence “SEDEEHARRFRELWLRIFHTGDWHEFHKLLDPNVRTQVGEFHDIGRESAAEHLELFLKQLGVDHTDITHVELIYIGDKVEVNILLRKEQGDKEYTFRIHIVVRKVNGQWLIKSIHITVE” came in with a protease stability score of 1.54.

Regarding “SEDEEHARRVLEEMIDARLTGDEDKYETLLDPNVRFHQGEWSFHGMEELSRIVHHEARRIDHHEVRLKELRVVNGRVHSRTLLKLDFNGVEYRLKIELIITKVDGRWLLKEVRVR”, the protease stability score was determined as 1.25.

As for “SEDEEHDHKLARWILELLHTGDEETFLDLMDPNTRVIIHVGDKRIHNHGREVVKRIQEQLEEDWGVSRVEIHIRRMTIIDGRVRIDGLLEYDGRRHEIHMIFVIINGKIHSEEQHIH”, the protease stability score was determined as 1.46.

Sequence “SEDEEHLKELSEMLIKNWLTGDEKKWDRLADPHAKLRINVNGRDRRRVGMENVHRALHHLFHELRIKHLRDKDSNLINGVSHIEGESTILVGDKEIDTRIVIHLLIIDGRLEEERIVIE” registered a protease stability score of 0.178.

With “SEDEEHSRIFVQLFQRAVETGDEDRMLQLMDPDARVHIGDKTYHGMFQFVRWLHDQLKRFKNIRIEWRLTEIDVFENHIIIKGELRLKAEGVDHIHNVIIYVNKINGRWIVHHMEIR”, the protease stability score turned out to be 1.52.

For the sequence “SEDEEHWRKTINLLIIAIRTGNEDLFWKLLDPNTRFEVDIGDKMIDLHGREKVAEWLHRFIHKIPNLKIHIREIEFNENETRIHGETHFDGKTRTVEIIIELVDGRMKEFIFIVK”, the protease stability score amounted to 2.16.

As to “SEDEEIAHHVVNLIMKIIRTGDEDNFKQLFDPHTRFTVGDKHHIGRETVIEFFRRWEEFYPNIQLELRLRDVKAYGDKVHVETEVIIRVGDKDLRFETTVYILKYNGRWFLKQEQFR”, the protease stability score is 0.769.

“SEDEEIAKEASEVFSDVLLTGNEDLFKEMIDPNVRVIVDGQDHIGRERALEFLIIWLERRGVEFKRVRVTRHRVIDGRVQMHYEVDSVVNGRRTNDSMELHSDKVNGRWIIRIIKFR”: the protease stability score was determined as 2.38.

For the sequence “SEDEEIARRYLEFFLHILRTGDFEEMLRLLDPHVRTHVDGREKHGRENVTTFFMRWWEDYGFDHVTLEDFRVHIYGEKIHIKIDGYFHFNGRSVDVKIHVIAKKINGRWLLHEMHFEVR”, the protease stability score was 1.26.

Turning to “SEDEEIFRIALHILIYTMKTGDEKMLEENFDPNTKIRVGDKEFVGREELRHWFEHLRPKDFKLRDISTQGEKIRIIGHSIGEVDGREVRYDVEMDLHKVDGRWRMTHERIH”, the protease stability score came out at 1.16.

For “SEDEEIHRKMFEDILHALRTGDWRELKHNLDPNVRLEVDGREIHGWEEVVKFLHEARVEHIEMRIRHVEFQGEKIISHRHMIFHKDVNGVRVDQRHDFTTIILKVNGRWRYHSIKID”, the protease stability score amounted to 1.36.

“SEDEEILREILEETNKALHTGDENHIRHLLDPHVRWHVGDKTIIGRDLLVDILRRMGVKHHEIRLRDMDHVGEKIRLEGELIIRYGDKTETHDVTFVLIKFDGRWHIEEYIHG”: the protease stability score is 0.866.

In turn, “SEDEEIMKDLLELFFEAMKTGDEDTLRHLFDPNARFVIGDKLLHGREEYIRYLQEWRVEIEHFNIRRLELVDGRIHLEGHMHLHVQYGDKHERRTHHLEWEIIKINGRWIFRSVRIN” registered a protease stability score of 1.48.

In turn, “SEDEEIMQRLLEELIEALTTGDEDFFTELVDPHARTEFDGKVMHGRERLKYTIELFGVKHVEFRVEVKRISVFDGRILSDTHLELIIDVDGRSVIIRRHTELRVDKVDGRWFNTEHRIE” returned a protease stability score of 0.183.

In the case of “SEDEEIQKKFWEEFMKALHTGDWHTLEKLLDPHVRYLVGEKHVHGRKKLEMEIRHLGVTNIEMHLHIESEERQGNKIILNGEFRRRINGVEIKTRAILILIKIDGRWVIDTEFIE”, the protease stability score stood at 2.05.

With “SEDEEISERALRHVYKHLKTGDEDNFQKNFDPHVRFEAENVEFHGREASEHLSKRIDVIHRIIIRHHTIYNGVIVIHGEVDGEFNGKRDRDIVTIYYVKVNGQWQIRELKIG”, the protease stability score turned out to be 0.891.

Take “SEDEEISKKIIERILETMRTGDEDIMEHLVDPDAKFHDEDHHDHGREAFRWWSEFVKRIAGHDKVEIRQQHVKFQGNKVILHTIVIQGNKIYELIIVMEKFDGRWSISTVHIR”: the protease stability score came to 1.43.

The sequence “SEDEEIVHLAIEMYLESIRTGDWKLWEKLIDPDVRLEVNGVEFHGMEEFLKFEREINKRVDHVEVRLRDTRLVNGQVNLNTELINRYDGRTIITETTYVAIKVDGKWYIHEYRIE” displayed a protease stability score of 1.14.

Turning to “SEDEEIVKKMSKEELEFWRTGNEHELSKLFDPDVLLFVGEKIFHGREVFKHFKERVDHFHEFRDKHIQVIDGRIHIDSEVNSRFNGRQLSEDVRIQALKFDGRWHYKSIHML”, the protease stability score came out at 0.336.

As for “SEDEEIVRHFLEIWIKILKTGDWHSMERLVDPHAKYENEHEVDHGRDSARRFVDELRVTEFRVESVKTQGDKATVHTRMVVHFNGKRIDTETRLHIHKVDGRWVVEIIIVN”, the protease stability score came to 1.43.

“SEDEEIWRRYAKEWYHNWSTGNFDRFKQLMDPDARFIYGDKELVGREEVLRRIRHLLEHLRFKRSEIKREHVVNGVLHLDVHEDGEQGDKSRRSDVEIILYVINGRLHTVEIRIE” gave a protease stability score of 1.61.

For “SEDEEKAERLSRKVVHDLLTGDFKSLLEMFDPNVRVNINGVNNHGRHFFWHELYDELRRLGVDKIEVDLRSLQVYGDKVVLEMELRVNGKKITVEIHMKKVDGRWHIKEVTHE”, the protease stability score amounted to 1.04.

“SEDEEKASEVARRFVRSLATGDFDTLTRLMDPNYKHVYGDKEFVGREVIREHLEELRLHFEDNKVKHVRVIGDKIDTDMEVRFTVEFDGVRVHHEMKVEFRILKINGRWFLEFTIIR” displayed a protease stability score of 0.337.

For the sequence “SEDEEKATEFFRLLVDNWLTGDEENVERLLDPRVRVLVGDKMIHGRHLSARLESEFLKRIPNLRIRFHLHDVRTYGDKAHLDIIIDIHFNGVDIHIESELVVVKIDGRWLFKEERRK”, the protease stability score was 0.276.

The sequence “SEDEEKATEMIEQLSRAILTGDEHTLHKLLDPRTRIVVNGRRIHGRELWLKFFRELRFHSDDMHIHSQEVQGDKAFFDVHWLGTRNINGVKEHSHTKTEVILLKYNGKWIVEELRYE” gave a protease stability score of 2.17.

“SEDEEKLQHMTHLFIHLEITGDEKLWTELADPNVRLDINGVEYHGREHVLRSWVELGIKVMRLHRRTAQGDKMHLDGTIDFNGRRYRIHVDVKIIDGKLKDTKQHIE” gave a protease stability score of 2.17.

On to “SEDEEKSHRFRRELLESLFTGDFDRFKELADPHVKVDINGRDIHGMELLVRIWRREEKEAGVNYTKDHDLKDHDIINGRAKIDIRVHGIFNGREQTVEVYIFSLKVDGRWILTFMKIN”, for which the protease stability score is 1.45.

In turn, “SEDEEKSKRDAQHWFNNWLTGDWRRTLELADPHARIDINGKELHGMHESLELLTRLIEKLGVDHIEMKKSDVVGDKMHIHGHLDIDGQKRDLTIFLLIIDGRLKHSQFELT” yielded a protease stability score of 0.165.

(Values after the NTF2 design screens of Basanta et al. (2020).)
